Experimental data reported in article PMC4303685.

How the values were obtained:
complement C3c (human) [1] = molecular target: complement C3c (human) (UniProt P01024); experiment: AUC; sedimentation velocity, c(s) analysis (SEDFIT), 50,000 rpm, 20 °C; 10 mM Hepes, 50 mM NaCl, pH 7.4; monomer to dimer, KD estimated
complement C3c (human) [2] = molecular target: complement C3c (human) (UniProt P01024); experiment: AUC; sedimentation velocity, c(s) analysis (SEDFIT), 50,000 rpm, 20 °C; 10 mM Hepes, 137 mM NaCl, pH 7.4; monomer to dimer, KD estimated from peak integration
complement C3c (human) [3] = molecular target: complement C3c (human) (UniProt P01024); experiment: AUC; sedimentation velocity, c(s) analysis; PBS in 2H2O (137 mM NaCl, pH 7.4); monomer to dimer, proportions by peak integration
complement C3c (human) [4] = molecular target: complement C3c (human) (UniProt P01024); experiment: SPR; Biacore X100, C3c amine-coupled to CM5 chip, C3d as analyte, 25 °C, 30 μl/min, steady state analysis; 10 mM Hepes, 50 mM NaCl, pH 7.4
[5] = molecular target: recombinant wild-type C3d (E1032) (human) (UniProt P01024); experiment: AUC; sedimentation velocity, c(s) analysis (SEDFIT), 50,000 rpm, 20 °C; 10 mM Hepes, 50 mM NaCl, pH 7.4; monomer to dimer, KD estimated
[6] = molecular target: recombinant wild-type C3d (E1032) (human) (UniProt P01024); experiment: AUC; sedimentation velocity, c(s) analysis (SEDFIT), 50,000 rpm, 20 °C; 10 mM Hepes, 137 mM NaCl, pH 7.4; monomer to dimer, KD estimated from peak integration
[7] = molecular target: recombinant wild-type C3d (E1032) (human) (UniProt P01024); experiment: AUC; sedimentation velocity, c(s) analysis; PBS in 2H2O (137 mM NaCl, pH 7.4); monomer to dimer, proportions by peak integration

Which results are given for “complement C3c (from UniProt P01024 23-667; P01024 749-954; P01024 1321-1663) (domain or fragment)”?
Kd (complement C3c (human) [1]): 50 µM; stoichiometry N (complement C3c (human) [1]): 2; Kd (complement C3c (human) [2]): 60 µM; dimer, percent of the total (complement C3c (human) [2]): 6%; stoichiometry N (complement C3c (human) [2]): 2; dimer proportion (complement C3c (human) [3]): 7%; stoichiometry N (complement C3c (human) [3]): 2

With “mutant C3d (A1032), C3d E1032A (from UniProt P01024 996-1287) (domain or fragment)” as the substance, how does the fold less binding than wild-type C3d (complement C3c (human) [4]) read?
The fold less binding than wild-type C3d was 10 fold.

How did the Kd [5] turn out when “recombinant wild-type C3d (E1032) (from UniProt P01024 996-1287) (domain or fragment)” was run?
Its Kd is 25 µM.

What about the stoichiometry N [5] of the same substance?
Its stoichiometry N is 2.

What about the dimer, percent of the total [6] of the same substance?
The dimer, percent of the total was 10%.

What about the stoichiometry N [6] of the same substance?
The stoichiometry N was 2.

What about the dimer proportion [7] of the same substance?
Its dimer proportion is 12%.

What about the stoichiometry N [7] of the same substance?
Its stoichiometry N is 2.

And the Kd (complement C3c (human) [4])?
Its Kd is 51 µM.
